Reference: PMC5739284
pKd: −log10 of the molar value.

Target: His6-sPfUIS3 (recombinant His-tagged soluble P. falciparum UIS3, wild type) (P. falciparum)
Experiment: SPR

GST-His6-LC3B (recombinant) (from UniProt Q9GZQ8 1-120) (natural protein)
pKd: 6.61
